Reference: patent publication US20240141372A1, “TRANSGENIC BANANA PLANTS HAVING INCREASED RESISTANCE TO FUSARIUM OXYSPORUM TROPICAL RACE 4 AND METHODS OF PRODUCING SAME” (Elo Life Systems, priority 2022, published 2024)

Test system: Foc_TR4
Assay: In vitro spore germination and mycelial growth assay
Type: cell-based, Fusarium oxysporum f.sp. cubense Tropical Race 4
Settings: Foc_TR4 spores, purified Pichia-secreted protein, low ionic strength media, 25° C., A595 at 48 hours; read-out: IC50 (μM, CE fraction)

| Molecule | IC50 [µM] |
| --- | --- |
| GB ID: RRT50697.1: defensin antimicrobial protein, Musa acuminata (RTCESASSRFKGTCVRSSNCASVCQGEGFPDGRCEGLRRRCMCRKPC; listed as Musa acuminata) | 0.51 ± 0.01 |
| Ma02_p12840.1: defensin antimicrobial protein, Musa acuminata (RTCESQSHKFVGPCVRKANCGNVCQTEGFHGGVCRGSLIHRKCYCTKNC; listed as Musa acuminata) | 0.86 ± 0.07 |
| Ma04_p36140.1: defensin antimicrobial protein, Musa acuminata (RTCESASTRFKGTCVRSSNCASVCQGEGFPDGKCEGVRRRCMCRKPC; listed as Musa acuminata) | 0.84 ± 0.06 |
| Ma06_p21420.1: defensin antimicrobial protein, Musa acuminata (KICRLPSIGFRGPCTSDKNCAKVCRREGFDSGDCEGYTMGCLCNKHC; listed as Musa acuminata) | 3 ± 0.17 |
| Ma08_p13660.1: defensin antimicrobial protein, Musa acuminata (RKCESASHKFKGLCFRASNCANVCKTEGFHGGHCRGLRRRCFCTKHCNSAT; listed as Musa acuminata) | > 25 |
| Ma11_p12930.1: defensin antimicrobial protein, Musa acuminata (RVCRYASRSFRGLCFSDTNCAHVCQTEGFNGGHCHGLRRRCMCLRRGC; listed as Musa acuminata) | 0.17 ± 0.006 |
| Mba02_g12080.1: defensin antimicrobial protein, Musa acuminata, without yeast signal peptide (RTCESQSHKFVGPCVREANCANVCHTEGFHGGVCRGTLIHRKCYCTKNC; listed as Musa acuminata) | 6 ± 0.59 |
| Ma10_p18110.1: snakin antimicrobial protein, Musa acuminata (protein, listed as Musa acuminata) GSAFCGSKCKVRCSKASVKDRCLKYCGLCCEQCRCVPSGTYGHKDECPCYRDKYTGSGKRRRPKCP | 1.31 ± 0.03 |
| Ma09_p26730.1: TLP antimicrobial protein, Musa acuminata (protein, listed as Musa acuminata) ATFEIVNWCPFTVWAAAVPGGGRQLDRGQTWVLDVNPGTTGGRIWARTGCSFDGSGSGSCQTGDCGGVLACQGYGSPPNTLAEFALNQFDNLDFLDVSLVDGFNVPMEFSPITGNCSAIRCLADIKGQCPAELWTPGGCNNPCTVFKTDEYCCTSGSCGPTNYSNFFKSNCPDAYSYPKDDATSTFTCPGNGDYKVIFCPSDGYPTRFGRTAVRFVIPRA | > 31 |
| Ma04_p17200.1: LTP antimicrobial protein, Musa acuminata (protein, listed as Musa acuminata) ITCGQVTSALSSCISYATGKGPLSTACCSGVKSLNSAAKTTADRKTACTCIKSTVSRLSGAQAGAIAGIPGKCGVSIGYPISASTDCSKVK | 2.09 ± 0.06 |
| Ma06_p33150.1: TLP antimicrobial protein, Musa acuminata (protein, listed as Musa acuminata) TFEIVNRCSYTVWAAAVPGGGRQLNQGQSWTINVNAGTTGGRIWGRTGCSFDGSGRGRCQTGDCGGVLSCTAYGSPPNTLAEFALNQFNNLDFFDISLVDGFNVPMDFSPTSGGCRGIRCAADINGQCPGALKAPGGCNNPCTVFKTDQYCCNSGSCSPTDYSRFFKRNCPDAYSYPKDDQTSTFTCPGGTNYRVVFCP | 0.029 ± 0.001 |
| Ma03_p07220.1: TLP antimicrobial protein, Musa acuminata (protein, listed as Musa acuminata) ATLALYNKCRETVWPGIQPSAGKAVLARGGFQLLPNQAYSLRLPAGWSGRVWGRRGCAFDPATGRGRCATGDCGGALYCNGLGGAPPATLAEFTLGQGRQQDFYDVSLVDGYNLGMSMTPFRGSGQCGRAGCVSDLNEVCPAGLAVRGGTDNRVVACKSACSAFGSPRYCCTGSFGGPQQCKPTAYSRLFKAACPRAYSYAYDDPTSILTCTGASYLVTFCPQH | 0.009 ± 0.0005 |
| Ma07_p21450.1: snakin antimicrobial protein, Musa acuminata (protein, listed as Musa acuminata) KDAFMEAGYAKAPVVAPVPAPPAPRIIKDTKECGDACKDRCKLHSRQNVCSRACITCCSVCKCVPPGTYGHTELCGKCYTDWKTHGNRTKCP | 0.9 ± 0.05 |
| Ma11_p18240.1: LTP antimicrobial protein, Musa acuminata (protein, listed as Musa acuminata) AIGCGQIISYLIPCLGYAQGTGPLTDGCCSGVRALNGAAQTTPDRQATCNCLKRSAAGVSGIQPGLIAGIPSKCGINVPYRISPSTDCSRVR | 2.25 ± 0.16 |
| Ma02_p13180.1: TLP antimicrobial protein, Musa acuminata (protein, listed as Musa acuminata) ATFTLTNNCEYTVWPGVLSSAGTAPLSITGFALQQGESRSLDVPAAWSGRFWGRTLCAADASGKFSCGTGDCGSGAVECSGSGAAPPATLAEFTLDGSGGMDFYDVSLVDGYNLPMLVVPQGGSGGACSSTGCLVDLNGVCPSDLKVVLPTSEGGSESVACRSACETFGSPQYCCSGDYGNPNTCKPSSYSQFFKNACPRAYSYAYDDATSTFTCASANYLITFCPSTTSQKSSDSNPEAAGIPSSNNSTMIYSSEEVSHATPTVPRVAVALALAVVALCLGF | > 30 |
| Ma06_p09450.1: snakin antimicrobial protein, Musa acuminata (protein, listed as Musa acuminata) ADSAYCKSKCKVRCAKAGVMDRCLYYCGMCCEECKCVPSGTYGNKDECPCYRDKVTKDDKKKSKCP | 2.71 ± 0.53 |
| Ma07_p17800.1: TLP antimicrobial protein, Musa acuminata (protein, listed as Musa acuminata) ATFDIVNQCSFTVWAAAVPGGGRQLDPSQTWSINVNPGTTGGRVWARTDCSFDGSGSGSCQTGDCGGLLECQGYGTPPNTLAEFALNQFQNMDFIDISLVDGFNVPMDFSPTSGDCRGIRCSADINGQCPAELRAPGGCNNPCTVFKTDEYCCTSGSCGPTNYSMFFKNNCPDAYSYPKDDATSTFTCPGGTNYRVVFCP | > 25 |
| Ma09_p27770.1: snakin antimicrobial protein, Musa acuminata (protein, listed as Musa acuminata) GSLKPSECNNKCDFRCSATSHKKPCLFFCKECCATCLCVPPGTYGNKEACPCYNNWKTKEGGPKCP | 0.08 ± 0.003 |
| Ma06_p20150.1: snakin antimicrobial protein, Musa acuminata (protein, listed as Musa acuminata) EREINCEAKCSHRCSKASRHKMCMRACVDCCHKCHCVPPGTYGHKEECPCYAHMKTRHGKPKCP | 0.53 ± 0.01 |
| Ma09_p13940.1: snakin antimicrobial protein, Musa acuminata (protein, listed as Musa acuminata) RKAVVEDEPPVSGGGDGKPPVPVIDCAGLCGVRCSRHSRPNLCKRACGTCCFRCKCVPPGTSGNREMCGACYTNMTTHGNRTKCP | 0.38 ± 0.01 |
| Ma08_p22790.1: snakin antimicrobial protein, Musa acuminata (protein, listed as Musa acuminata) RISLAPTAQPGNPLGPTPQPIKFPMYGATPGSLQPQECSGRCAGRCSATAYKKPCMFFCQKCCAKCLCVPPGTYGNKQVCPCYNNWKTKRGGPKCP | 0.52 ± 0.08 |
| Ma04_p30830.1: LTP antimicrobial protein, Musa acuminata (protein, listed as Musa acuminata) ATCNPTELTPCAAAILKSSPPSSLCCSKLKSQAPCFCQYQKNPSLSRYISGGRKVAAACGVPVPSC | 6.34 ± 0.23 |
| Ma09_p21930.1: LTP antimicrobial protein, Musa acuminata (protein, listed as Musa acuminata) VTCNPLELSPCSSAVLSGARPSAACCAKLKEQQPCFCQYKKNPSLKDYVNSDNGKKALKACGVPIPSC | 1.86 ± 0.08 |
| Ma06_p00870.1: snakin antimicrobial protein, Musa acuminata (protein, listed as Musa acuminata) KDLPAEEFGVSLAEKGHKHKHSGFSEAECPGACQYRCSKTAYKKPCLFFCQKCCFKCRCVPPGTYAHKEVCPCYNNWKTKRGGPKCP | > 16 |
| Ma04_p17240.1: LTP antimicrobial protein, Musa acuminata (protein, listed as Musa acuminata) ITCSQVYGDLISCVGYLQGGPIKQQCCSGIKSLIAAARTTQDRRTACGCIKTAAAGLSGIDYGRVSQLPGQCGISVSYKISPNVDCSKIN | 1.92 ± 0.13 |
| Ma04_p17190.1: LTP antimicrobial protein, Musa acuminata (protein, listed as Musa acuminata) ITCSQVYGDLISCVGYLQGGPIKQQCCSGIKSLIAAARTTKDRRTACGCIKTAAAGLSGIDYGRVSQLPGQCGISVSYKISPNVDCSKIN | 3.47 ± 0.21 |
| Ma02_p17990.1: TLP antimicrobial protein, Musa acuminata (protein, listed as Musa acuminata) QYPAMTLTVVNNCPFTVWPAIQPNSGHDVLERGGFALPTVTHRSFPAPTQHWSGRIWARTGCTYANGRFSCATGDCGGRLECGGLGGAAPATLAQVTLHHGGQQDLSSYGVSLVDGFNVGMTVTPHEGKGRCPVVGCRENLLATCPDVLQLRAPAGGGQVVGCKSGCQAFGTDELCCRNMYNSPRTCRASSYSEFFKHACPATFTYAHDSPSLTHECAAPRELKVIFCH | 0.64 |
| Ma06_p33170.1: TLP antimicrobial protein, Musa acuminata (protein, listed as Musa acuminata) NFEIVNRCSYTVWAAAVPGGGRQLNQGQSWTINVKAGTTGGRIWGRTGCSFDGSGHGRCQTGDCGGLLACTAYGSPPNTLAEFALNQYSNQDYVDISLVDGFNVPMDFSPTSGGCRGMRCTADINKKCPTALKAPGGCNNPCTVFKTDQYCCNSGSCQPTEYSKFFKSNCPDAYSYPKDDPTSLVACPGGTNYRVVFCP | 0.052 ± 0.002 |
